Measured values: publication PMC8403554 (Cell, 2019)
One block for each binder: values may come before it.

B2: tetrameric βI-tryptase (insect cells) (enzyme)
chain: not shown

How the values were obtained:
[1] = target: human βI-tryptase monomer (Homo sapiens, beta-I allele of TPSAB1, UniProt Q15661); assay: SPR
[2] = target: the molecule itself; assay: SEC
[3] = target: B2; assay: crystal structure

human βI-tryptase monomer, sequence (Q15661 31-275): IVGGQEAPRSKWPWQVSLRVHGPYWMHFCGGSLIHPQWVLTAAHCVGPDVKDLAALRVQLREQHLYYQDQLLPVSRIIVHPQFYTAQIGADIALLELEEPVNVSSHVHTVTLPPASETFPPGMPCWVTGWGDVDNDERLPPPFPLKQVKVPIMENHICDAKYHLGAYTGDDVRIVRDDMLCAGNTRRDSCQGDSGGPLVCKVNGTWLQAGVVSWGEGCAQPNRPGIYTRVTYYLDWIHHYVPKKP

fold improvement in binding affinity (Kd) over the parental 31A clone [1]: ~10 fold
B1: humanized 31A.v11 IgG4 anti-tryptase antibody (antibody, V domains shown)
VH: EVQLVESGGGLVQPGGSLRLSCAASGFTFSDYGMVWVRQAPGKGLEWVAFISSGSSTVYYADTMKGRFTISRDNSKNTLYLQMNSLRAEDTAVYYCTRRNYDDWYFDVWGQGTLVTVSS
VL: DIQMTQSPSSLSASVGDRVTITCSASSSVTYMYWYQQKPGKSPKPWIYRTSDLASGVPSRFSGSGSGTDFTLTISSLQPEDFATYYCQHYHSYPLTFGQGTKVEIK

Binder: B2
stoichiometry N [2]: 4

binding result [3]: binds
B3: soybean trypsin inhibitor (natural protein, UniProt P01070 25-205, looked up)
chain: DFVLDNEGNPLENGGTYYILSDITAFGGIRAAPTGNERCPLTVVQSRNELDKGIGTIISSPYRIRFIAEGHPLSLKFDSFAVIMLCVGIPTEWSVVEDLPEGPAVKIGENKDAMDGWFRLERVSDDEFNNYKLVFCPQQAEDDKCGDIGISIDHDDGTRRLVVSKNKPLVVQFQKLDKESL
